Laboratory results taken from patent US20220049016A1 (ZYMEDI, published 2022).
Values belong to the binder of their own block, whether it stands above or below them.

Columns and labels:
[1] = molecular target: T1, NRP1-b1b2 (UniProt O14786 273-586, limits assumed); experiment: ELISA, coated antigen printed as NRP1
T1 construct: domain: b1b2; Negative control antigen
T1 sequence (looked up): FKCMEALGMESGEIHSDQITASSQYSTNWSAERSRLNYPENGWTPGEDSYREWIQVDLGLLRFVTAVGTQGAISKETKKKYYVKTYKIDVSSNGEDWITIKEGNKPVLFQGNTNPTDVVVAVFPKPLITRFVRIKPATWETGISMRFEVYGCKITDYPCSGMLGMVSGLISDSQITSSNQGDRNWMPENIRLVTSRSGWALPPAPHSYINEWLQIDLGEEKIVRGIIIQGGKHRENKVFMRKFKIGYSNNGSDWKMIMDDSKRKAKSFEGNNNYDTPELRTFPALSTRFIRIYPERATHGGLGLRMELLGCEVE

[2] = molecular target: T2, KRS fragment (1-207aa) (human, UniProt Q15046 1-207); experiment: SPR, Biacore T200, antibody amine-coupled on CM5, KRS (1-207aa) as analyte, 25 C
T2 construct: range 1-207; also called purified protein of the KRS fragment (1-207aa); KRS protein

[3] = molecular target: T2, KRS fragment (1-207aa); experiment: SPR (Biacore T200), antibody immobilised on CM5, KRS 1-207 flowed at 4.8 to 1250 nM
[4] = molecular target: T3, KRS epitope peptide F4; experiment: SPR, Biacore T200, antibody on the chip, peptide F4 as analyte
T3 peptide: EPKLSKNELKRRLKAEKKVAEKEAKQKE
Method: The SPR experiment was performed using a Biacore T200 (GE Healthcare) equipped with a Series S sensor chip CM5 (GE Healthcare) at 25° C. After the antibody was immobilized on the chip using an amine coupling kit (GE Healthcare), the antigen was diluted 4 times in PBS solution in the range of 4.8 nM-1250 nM and flowed for 60 seconds. Thereafter, PBS was flowed for 300 seconds. The obtained data was analyzed with Biacore T200 Evaluation software v2.0 (GE Healthcare).
After that, PBS was flowed for 2400 seconds. The obtained data was analyzed with Biacore T200 Evaluation software v2.0 (GE Healthcare).

T2 sequence (Q15046 1-207 limits assumed): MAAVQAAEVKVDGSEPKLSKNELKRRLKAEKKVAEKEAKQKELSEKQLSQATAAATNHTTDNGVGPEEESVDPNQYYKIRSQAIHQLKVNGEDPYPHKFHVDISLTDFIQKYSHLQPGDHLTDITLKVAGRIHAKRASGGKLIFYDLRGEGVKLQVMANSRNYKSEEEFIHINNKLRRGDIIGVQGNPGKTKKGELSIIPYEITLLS

binding result [1]: no binding (tested: 10 nM)
B1: N3-8 antibody (IgG) (antibody)
heavy: not shown
light: QSVLTQPPSASGTPGQRVTISCTGSSSNIGSNYVTWYQQLPGTAPKLLIYDNSNRPSGVPDRFSGSKSGTSASLAISGLQSEDEADYYCSSFSDELGAYVFGGGTKLTVLRTVAAPSVFIFPPSDEQLKSGTASVVCLLNNFYPREAKVQWKVDNALQSGNSQESVTEQDSKDSTYSLSSTLTLSKADYEKHKVYACEVTHQGLSSPVTKSFNRGEC
notes: Whole IgG1; also called N3-8 IgG

Kd [2]: 31 nM
koff [3]: 0.0206 s⁻¹
kon [3]: 664000 M⁻¹ s⁻¹
B2: N3-1 antibody (IgG) (antibody)
chain 1: EVQLLESGGGLVQPGGSLRLSCAASGFTFSSYDMSWVRQAPGKGLEWVSAISYDNGNTYYADSVKGRFTISRDNSKNTLYLQMNSLRAEDTAVYYSARMALDFDYWGQGTLVTVSS
chain 2: QSVLTQPPSASGTPGQRVTISCTGSSSNIGSNYVTWYQQLPGTAPKLLIYDNSNRPSGVPDRFSGSKSGTSASLAISGLQSEDEADYYCASFSDELGAYVFGGGTKLTVL

Kd [4]: 10.1 nM
koff [4]: 0.0009 s⁻¹
kon [4]: 89500 M⁻¹ s⁻¹
B3: N3-8-4 antibody (IgG) (antibody, V domains shown)
VH: EVQLLESGGGLVQPGGSLRLSCAASGFTFSSYDMSWVRQAPGKGLEWVSAISPYSGRIYYADSVKGRFTISRDNSKNTLYLQMNSLRAEDTAVYYCARLALDFDYWGQGTLVTVSS
VL: QSVLTQPPSASGTPGQRVTISCTGSSSNIGSNYVTWYQQLPGTAPKLLIYDNSNRPSGVPDRFSGSKSGTSASLAISGLQSEDEADYYCSSFSDELGAYVFGGGTKLTVLG
notes: Whole IgG1, N3-8 derivative; also called N3-8-4 IgG
